# Measured values from patent publication US12065471B2, “B*44 restricted peptides for use in immunotherapy against cancers and related methods” (Immatics Biotechnologies GmbH, priority 2018, dated 2024).
# Target: HLA-B*44:05 (Homo sapiens, UniProt P01889, A223V/A65T/A93T/A95T/D201E/D98Y/E176V/E187L/E204Q/E69K/G107R/H137Y/K202T/L105A/L119I/N104T/N87E/Q56L/Q94N/R106L/R155S/R180D/S101N/S121R/S35A/S48T/T118I/V36M/W191S/Y91S)
# Experiment: MHC binding assay (UV-ligand exchange, β2m ELISA, peptide exchange yield)
# Details: binding to HLA-B*44:05
# Method in brief: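 Binding is read as exchange yield, i.e. stabilized complex remaining after UV cleavage of a photolabile ligand in the presence of the candidate peptide. Streptavidin-captured monomers (100-fold dilution) are probed with HRP-anti-β2m, 1h at 37° C, TMB, A450. Standard curve: HLA-A*02:01/MLA-001 monomers at 15-500 ng/ml.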
row,Substance,"Peptide exchange (MHC class I binding score, peptide exchange yield)"
1,389 (DEQRRQNVAY; listed as Homo sapiens) [compound 389],++ (>20% = ++)
2,190 (NEAGEVSKHF; listed as Homo sapiens) [compound 190],+++ (>50 = +++)
3,196 (TELEVKIRDW; listed as Homo sapiens) [compound 196],++++ (>75% = ++++)
4,213 (DEDLFHKL; listed as Homo sapiens) [compound 213],++ (>20% = ++)
5,393 (SETILAVGL; listed as Homo sapiens) [compound 393],+++ (>50 = +++)
6,397 (EECGKAFSVF; listed as Homo sapiens) [compound 397],+++ (>50 = +++)
7,129 (EEAMKRLSY; listed as Homo sapiens) [compound 129],++ (>20% = ++)
8,359 (NEFRRKLTF; listed as Homo sapiens) [compound 359],+++ (>50 = +++)
9,89 (KEFYPVKEF; listed as Homo sapiens) [compound 89],++ (>20% = ++)
10,249 (YEMAIYKKY; listed as Homo sapiens) [compound 249],++++ (>75% = ++++)
11,398 (AEIIRYIF; listed as Homo sapiens) [compound 398],+ (>10% = +)
12,244 (VESSQAFTW; listed as Homo sapiens) [compound 244],+++ (>50 = +++)
13,263 (AEQLRGFNA; listed as Homo sapiens) [compound 263],+++ (>50 = +++)
14,138 (KEAPNIVTL; listed as Homo sapiens) [compound 138],++++ (>75% = ++++)
15,394 (SEILRVTLY; listed as Homo sapiens) [compound 394],+++ (>50 = +++)
16,370 (EEVLLANALW; listed as Homo sapiens) [compound 370],+++ (>50 = +++)
17,170 (REMFVFKDQW; listed as Homo sapiens) [compound 170],++++ (>75% = ++++)
18,298 (KEVASNSEL; listed as Homo sapiens) [compound 298],+++ (>50 = +++)
19,149 (AETEPERHLG; listed as Homo sapiens) [compound 149],++ (>20% = ++)
20,253 (QEILHGAVRF; listed as Homo sapiens) [compound 253],+++ (>50 = +++)
21,441 (QEVAQVASAIL; listed as Homo sapiens) [compound 441],++++ (>75% = ++++)
22,161 (GESSEVKAVL; listed as Homo sapiens) [compound 161],+++ (>50 = +++)
23,448 (ALSPVPSHW; listed as Homo sapiens) [compound 448],+++ (>50 = +++)

row,Substance,"Peptide exchange (MHC class I binding score, peptide exchange yield)"
1,84 (AETSYVKVLEY; listed as Homo sapiens) [compound 84],+++ (>50 = +++)
2,14 (EMPGGPVW; listed as Homo sapiens) [compound 14],+++ (>50 = +++)
3,254 (QEVAGYVLI; listed as Homo sapiens) [compound 254],+++ (>50 = +++)
4,384 (LDGIPTAGW; listed as Homo sapiens) [compound 384],+++ (>50 = +++)
5,434 (AEQQQQQMY; listed as Homo sapiens) [compound 434],+++ (>50 = +++)
6,295 (QELEQEVISL; listed as Homo sapiens) [compound 295],+++ (>50 = +++)
7,285 (AEHPDFSPCSF; listed as Homo sapiens) [compound 285],+++ (>50 = +++)
8,345 (AEYQAAILHL; listed as Homo sapiens) [compound 345],+++ (>50 = +++)
9,76 (RLNEHPSNNW; listed as Homo sapiens) [compound 76],++ (>20% = ++)
10,413 (TELEPGLTY; listed as Homo sapiens) [compound 413],+++ (>50 = +++)
11,308 (EEPKIDFRVY; listed as Homo sapiens) [compound 308],+++ (>50 = +++)
12,128 (TELTEARVQVW; listed as Homo sapiens) [compound 128],+++ (>50 = +++)
13,443 (EEYAGQITL; listed as Homo sapiens) [compound 443],+++ (>50 = +++)
14,425 (KEVDPASNTY; listed as Homo sapiens) [compound 425],+++ (>50 = +++)
15,324 (QELSSIRQF; listed as Homo sapiens) [compound 324],+++ (>50 = +++)
16,246 (HEHGLFNLY; listed as Homo sapiens) [compound 246],+++ (>50 = +++)
17,450 (REIENGNSF; listed as Homo sapiens) [compound 450],+++ (>50 = +++)
18,117 (SEVPVDSHY; listed as Homo sapiens) [compound 117],+++ (>50 = +++)
19,344 (DEIRVFGY; listed as Homo sapiens) [compound 344],++ (>20% = ++)
20,281 (HEIPQESL; listed as Homo sapiens) [compound 281],+ (>10% = +)
21,429 (RETEDYSKQAL; listed as Homo sapiens) [compound 429],++ (>20% = ++)
22,1 (KEVDPASNTYTL; listed as Homo sapiens) [compound 1],++ (>20% = ++)
23,314 (EMREERKF; listed as Homo sapiens) [compound 314],++ (>20% = ++)

row,Substance,"Peptide exchange (MHC class I binding score, peptide exchange yield)"
1,169 (KEHNSSVPWSS; listed as Homo sapiens) [compound 169],++++ (>75% = ++++)
2,164 (DEDGKIVGY; listed as Homo sapiens) [compound 164],++ (>20% = ++)
3,275 (GEQPPEGQW; listed as Homo sapiens) [compound 275],+++ (>50 = +++)
4,312 (KEWEREKAVSL; listed as Homo sapiens) [compound 312],+++ (>50 = +++)
5,386 (EESDYITHY; listed as Homo sapiens) [compound 386],+++ (>50 = +++)
6,407 (MEFQNTQSY; listed as Homo sapiens) [compound 407],+++ (>50 = +++)
7,137 (EKGLISAF; listed as Homo sapiens) [compound 137],++ (>20% = ++)
8,271 (REDLVGPEV; listed as Homo sapiens) [compound 271],+++ (>50 = +++)
9,201 (MEILWKTLT; listed as Homo sapiens) [compound 201],++++ (>75% = ++++)
10,74 (AELEGALQKA; listed as Homo sapiens) [compound 74],++ (>20% = ++)
11,431 (QELLDFTNW; listed as Homo sapiens) [compound 431],++++ (>75% = ++++)
12,85 (SEIDEKVTDL; listed as Homo sapiens) [compound 85],+++ (>50 = +++)
13,81 (GEKATMQNL; listed as Homo sapiens) [compound 81],++ (>20% = ++)
14,86 (QTLKAMVQAW; listed as Homo sapiens) [compound 86],+++ (>50 = +++)
15,278 (DQVTVFLHF; listed as Homo sapiens) [compound 278],+ (>10% = +)
16,351 (EEGRVYVY; listed as Homo sapiens) [compound 351],++ (>20% = ++)
17,377 (AEDARGWTA; listed as Homo sapiens) [compound 377],++ (>20% = ++)
18,242 (CDAQIQYSY; listed as Homo sapiens) [compound 242],+++ (>50 = +++)
19,335 (SETPTLQGL; listed as Homo sapiens) [compound 335],+++ (>50 = +++)
20,288 (TEHFLKKFF; listed as Homo sapiens) [compound 288],+++ (>50 = +++)
21,372 (EEYKFPSLF; listed as Homo sapiens) [compound 372],+++ (>50 = +++)
